Test results as given in the supplement of paper PMC12764529.
± gives the half width of the 95% confidence interval.

Test: folding stability dG unfold from trypsin proteolysis; higher = more stable
Summary of the method: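 Unfolding free energy was derived, per protease or combined, against a sequence-predicted unfolded-state K50 and a shared folded-state K50, starting from K50 inferred by Bayesian fitting of sequencing counts. Digestion with trypsin and chymotrypsin was carried out on designed mini-proteins under 80 residues without cysteine in a PA-tagged cDNA display construct. Only designs with AlphaFold2 dimer inter-PAE above 15 were kept.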

Compared with “SAGGSAGGSAGVVVKKPGTDVVYEITEEPGSYKVTITDPKTGTTKEFTVSPEVSIESLLLSAGGSAGGSAGG [r11_772_JUSTAS]”, “SAGGSAGGSGGFLVLEFEIEVDPEDPEKALAVVEALVESLGFEPVLIEVEEDENRVRVRVLLGSAGGSAGGS [r12_731_TrMRF]” is higher in “folding stability dG unfold” value: 5.09 ± 0.385 kJ/mol for the first, 12.3 ± 0.414 kJ/mol for the second.

Compared with “SAMTITVTAPPGYTLNVTVTLAGGVPLTRTFSPSQSIDITIPEGTPFSLTVTTTAPGGEVATSTLTVPLSAG [r14_568_JUSTAS]”, “SAGGSAGGSAGNMWDQALRAAREAKDQGDEEVVIHFPPNMKNWVKEWAEDLGWPIKIQPTSAGGSAGGSAGG [r11_371_TrROS]” is lower in “folding stability dG unfold” value: 13.4 ± 0.502 kJ/mol for the first, 0.535 ± 0.711 kJ/mol for the second.

First: SAGGSAGGSAKKITVEITIEVNGKKYKVKAEIELDEETKTLTIKVTFPDGTEFEFTFKLPEESAGGSAGGSA [r18_239_TrROS_Hall]
Second: SAGGKTIVIELTPEEVEELLKKLLEELKKKAEENPDAKITIVITTPDGRTYTITIDLKTGKITIEELPSAGG [r13_216_TrROS_Hall]
The “folding stability dG unfold” value of the first is higher: 16.2 ± 0.92 kJ/mol for the first, 10 ± 0.213 kJ/mol for the second.

“SAGFGVYKHKYKYDNDDGNPKPKKPEEEPVEPAPPIEPLPIPIRLPDGQPFTFTILSISPKNNNISLNGSAG [r5_735_TrROS]” and “SAGFWIRIDPKNPRIYISGMPPGMIELIAENAGAPDVTPVKPGRPWWDARDNHPDPDAVIPIPPENMMSAGG [r19_270_TrROS]” are within error of each other in “folding stability dG unfold” value: 1.17 ± 0.92 kJ/mol for the first, 1.33 ± 0.669 kJ/mol for the second.

Compared with “SAGGSMKIVKIEKIDLAKLKPGDIIEVKLENGEIYRIRIEKNEDGKYTVYIYNKNGELVEEFEFDVSAGGSA [r2_323_TrROS_Hall]”, “SAGGGVTITLKTADGKTLTLEIPGLTSVTVEPDKVTVEFEIPDYRITITFNPSTGTVEIKISHPDEPESAGG [r13_392_TrMRF]” is higher in “folding stability dG unfold” value: 9.51 ± 0.502 kJ/mol for the first, 14.1 ± 0.795 kJ/mol for the second.

Compared with “SAGGDVTISIMIFVWPGWTEEQYKEMAKEVAKTIARQLAQKNPDLNENIDIEDIEVTIIPMEGDPDYFSAGG [r13_128_TrROS]”, “SAGGSAGGSAGGKKIRFYFPNGNPVELTEILDVDPEDKWARIDVEHNGKKHKHPMPADDLSAGGSAGGSAGG [r7_236_TrROS]” is lower in “folding stability dG unfold” value: 7.98 ± 0.205 kJ/mol for the first, -5.71 ± 2.85 kJ/mol for the second.

Compared with “SAGGSAGGSAGGMYVAVVTRPDGSRLVVETEPGEEIELFTEDGRPLGITAVAPVDEEAFSAGGSAGGSAGGS [r10_422_TrMRF]”, “SPSADAKVRVEPLPGPGYLATLEDGSLVLVHPDGTVIEVTETKVRIRVFTPDKPLLELEIEIPPPAPDEPSA [r9_901_TrMRF]” is higher in “folding stability dG unfold” value: 1.86 ± 0.151 kJ/mol for the first, 3.36 ± 0.397 kJ/mol for the second.

First: SAGGPVVEKIRELLKELGYEVEVTDVKEDYVEIKVKLPDKEITLPDGSKIERLENGELRIWIPKEDLSAGGS [r8_297_TrROS_Hall]
Second: SAGMLRVDIEIPPAFRKMLKNAPPGETVMFELPIKIKIEYYQPDGGKPEPKEHEQPFPVQFMVVLPPDGSAG [r5_946_TrROS]
The “folding stability dG unfold” value of the first is higher: 12.5 ± 0.255 kJ/mol for the first, 8.97 ± 0.669 kJ/mol for the second.

Going from “SAGGMVTSTVSVDPSVPKTTTTETFSDGTRVVTTTTELPSGLTVTTTTVTVPPDGSTTATSTTTTIAPSAGG [r13_230_JUSTAS]” to “SAGGMTILFEADSLEEARQAVEDLLRDLGIPAIAERITVEERTFRLPAGPGTRRFVLVTIDLRLEPPSAGGS [r16_587_TrMRF]”, the “folding stability dG unfold” value rises from 6.77 ± 0.268 kJ/mol to 11.2 ± 0.13 kJ/mol.

Going from “GFEVTAEIEVYEDPESGAKVVKVTIPVKNGDPEVLEKAAKELAKKLFGPGAKFDPKIDPETGRVEVTGVLAS [r1_273_TrMRF]” to “SAKVSHLEFSLPNSVVTPEDLLAALEKLGFPPSKIKKMEIVKVKDNSYVVKIYLENEDGSDSIITLHLPSAG [r14_30_TrMRF]”, the “folding stability dG unfold” value falls from 3.94 ± 0.192 kJ/mol to 2.15 ± 0.326 kJ/mol.

Going from “SAGGSAGGSAGGSPKVYVELRFKLPNNLYVEIRYEIDPEKPGYVDWEVRLFDENGNPLGSAGGSAGGSAGGS [r4_297_TrMRF]” to “SAGGSAGGSAMPPDAKPVRTETDPATGTTTEYILYPDSDTTIRKTHLPDGSVQVEEFSVSKTSAGGSAGGSA [r18_521_JUSTAS]”, the “folding stability dG unfold” value falls from 15.1 ± 0.962 kJ/mol to -3.11 ± 0.628 kJ/mol.

Compared with “SAGKKYKVKKKITLTLEDGSKITIEIVENEDGTVEIKITDSNGKTRTITIPKEKLENMSLEELLKLLKSAGG [r19_47_TrROS_Hall]”, “SAGGKLPLPPGTEVEFLFRSPLDPRRLYLVRVRFEPVPPDRLRLRPRVFNPETGEEVEFEFEVPLDEGSAGG [r13_268_TrMRF]” is higher in “folding stability dG unfold” value: 7.37 ± 0.418 kJ/mol for the first, 10.3 ± 0.172 kJ/mol for the second.

First: SAGGETKTFTIDEIRAKLKEALDNGIDEVRITVFRDGKEEEITIPASKLDEIIASLPPDATVRIERVSAGGS [r16_636_TrROS_Hall]
Second: SWWYMVKIEIENGGKPIKIPVPVNDLDDFIDNAREAIPPDLADQLPPNMEVEVEVMPIPRVDPENGKPRPSA [r9_111_TrROS]
The “folding stability dG unfold” value of the first is higher: 8.45 ± 0.176 kJ/mol for the first, 3.62 ± 0.226 kJ/mol for the second.

First: SAGGSAGGSANWYIRIHSPNGQPIWFPMKIKNVTPKGGEIEFKMRNPNGREMPFRVEIFPLESAGGSAGGSA [r18_163_TrROS]
Second: SAGGSAALVLSREEFDGEVLLTLRDPETGEELLARLTYVPEENLVRLETTFPDGSTTTSVLPASALSAGGSA [r15_1055_JUSTAS]
The “folding stability dG unfold” value of the first is lower: 3.14 ± 0.544 kJ/mol for the first, 7.505 ± 0.0711 kJ/mol for the second.

“SAGGSAPWRPITITIPGSWEEIKELAKKFVNDGNIRDVEVEPVPDPGYYKVTVWVRDPNGNWYLVFSAGGSA [r15_177_TrROS]” and “SAMTVYYKITAEVEKTIGDTPETLTVPLTLTVPPDKLNEEEIKKIAEEKAKELGYTLKKIEISKTPSLPSAG [r14_278_JUSTAS]” are within error of each other in “folding stability dG unfold” value: 9.33 ± 0.669 kJ/mol for the first, 9.29 ± 0.351 kJ/mol for the second.

With “SAGGSAGGSAKTVVINIKDLKLSKDGKLTVEEIKKRIKELLKKKGIKKVTVKTVEELLKALKSAGGSAGGSA [r18_72_TrROS_Hall]” the “folding stability dG unfold” value was 3.76 ± 0.259 kJ/mol.
